Results as given in patent publication US20230219996A1.

Assays:
[1] = biological target: SARS-CoV-2 spike (P.1, Brazil, Gamma) (SARS-CoV-2); assay: MSD V-PLEX ACE2 kit, sVNT, positive control; competitor ACE2 (NHP study)
[2] = biological target: SARS-CoV-2 spike (B.1.351, South Africa, Beta) (SARS-CoV-2); assay: as above
[3] = biological target: SARS-CoV-2 spike (B.1.1.7, UK, Alpha) (SARS-CoV-2); assay: as above
[4] = biological target: SARS-CoV-2 spike (P.1, Brazil, Gamma) (SARS-CoV-2); assay: MSD V-PLEX ACE2 kit, sVNT, positive control; competitor ACE2 (mouse study)
[5] = biological target: SARS-CoV-2 spike (B.1.351, South Africa, Beta) (SARS-CoV-2); assay: as above
[6] = biological target: SARS-CoV-2 spike (B.1.1.7, UK, Alpha) (SARS-CoV-2); assay: as above

Measured: ACE2-binding percent inhibition

ACE2 Calibration Reagent (included in the MSD kit)
100%: all assays above
